Target: T1, Rif1 NTD (100-1322) C466A/C473A (Saccharomyces cerevisiae, UniProt P29539 100-1322, C466A;C473A)
T1 sequence: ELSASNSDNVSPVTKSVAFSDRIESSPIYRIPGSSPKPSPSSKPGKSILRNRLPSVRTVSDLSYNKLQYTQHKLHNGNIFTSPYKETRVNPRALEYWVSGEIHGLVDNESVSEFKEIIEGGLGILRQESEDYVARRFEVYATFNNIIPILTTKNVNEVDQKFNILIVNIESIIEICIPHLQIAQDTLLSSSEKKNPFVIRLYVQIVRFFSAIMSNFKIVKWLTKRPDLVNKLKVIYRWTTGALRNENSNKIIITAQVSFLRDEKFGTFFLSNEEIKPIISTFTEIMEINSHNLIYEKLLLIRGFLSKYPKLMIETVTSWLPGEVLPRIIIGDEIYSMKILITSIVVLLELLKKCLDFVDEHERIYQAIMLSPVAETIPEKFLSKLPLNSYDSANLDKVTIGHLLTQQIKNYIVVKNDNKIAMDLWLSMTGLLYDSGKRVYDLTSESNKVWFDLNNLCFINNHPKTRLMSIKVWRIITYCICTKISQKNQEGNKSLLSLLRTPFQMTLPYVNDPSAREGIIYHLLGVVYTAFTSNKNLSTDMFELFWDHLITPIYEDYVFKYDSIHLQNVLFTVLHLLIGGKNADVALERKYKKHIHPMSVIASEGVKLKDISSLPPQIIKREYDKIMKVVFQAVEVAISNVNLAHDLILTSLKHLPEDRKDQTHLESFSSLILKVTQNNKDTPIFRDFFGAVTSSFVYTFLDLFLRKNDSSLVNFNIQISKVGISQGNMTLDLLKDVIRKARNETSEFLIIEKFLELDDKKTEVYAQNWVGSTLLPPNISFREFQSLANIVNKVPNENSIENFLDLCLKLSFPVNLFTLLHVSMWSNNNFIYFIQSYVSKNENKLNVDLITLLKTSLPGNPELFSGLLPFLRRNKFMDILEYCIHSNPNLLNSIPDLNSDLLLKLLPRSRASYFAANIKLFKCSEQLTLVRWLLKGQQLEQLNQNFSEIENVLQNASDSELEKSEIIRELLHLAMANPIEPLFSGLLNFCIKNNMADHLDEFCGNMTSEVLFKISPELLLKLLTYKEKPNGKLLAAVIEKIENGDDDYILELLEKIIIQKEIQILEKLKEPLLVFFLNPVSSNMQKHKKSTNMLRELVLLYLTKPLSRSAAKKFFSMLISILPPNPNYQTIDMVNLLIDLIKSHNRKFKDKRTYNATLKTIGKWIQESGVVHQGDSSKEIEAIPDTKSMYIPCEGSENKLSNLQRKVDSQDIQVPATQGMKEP
Assay: EMSA; protein 10-160 nM, DNA 1 nM; apparent affinity similar to wild-type; 20 mM Tris-HCl pH 8.0, 100 mM NaCl, 2.5 mM MgCl2, 10 mM CaCl2, 0.1 mg/ml BSA, 1 mM TCEP, 30 min at 20 °C; 1.2% agarose gel, 0.5x TBE, 4 °C
Conditions: protein: recombinant; tags: N-terminal Strep(II); label: 5'-32P on EMSA1; blunt

B1: 30 bp dsDNA (EMSA1/EMSA2) (dsDNA)
DNA 1: TAGCAAGGCACTGGTAGAATTCGGCAGCGT
DNA 2: ACGCTGCCGAATTCTACCAGTGCCTTGCTA
B1: binds.

Reference: article PMC6557901, “Rif1 S-acylation mediates DNA double-strand break repair at the inner nuclear membrane”
